The results in this text go back to publication PMC10442823.

Assay [1] has as its target His-tagged human FcγRIIIa (V158 allotype), extracellular domain (amino acids 17-208) (human) (UniProt P08637). Kind of assay: SPR. On the technique in general: Surface plasmon resonance follows binding to a sensor surface in real time, without labels.
The target is the same in assay [2]. Description: SPR; Biacore T200; His-tagged FcγRIIIa captured (40 RU) by anti-His antibody on a CM5 chip; Rituxan flowed over, HEPES-EP running buffer; KD from steady state; three independent runs.
For assay [3], the target named is His-tagged human FcγRIIIa (F158 allotype), extracellular domain (amino acids 17-208) (human) (UniProt P08637). Kind of assay: SPR.

A word on the Kd: it is the equilibrium constant for the complex coming apart. Substance “mammalian cell produced rituximab (Rituxan)” gave a Kd in assay [1] of 262 nM.

The substance “mammalian cell produced rituximab (Rituxan) (antibody)” registered an equilibrium dissociation constant (Kd) in assay [2] of 263 nM.

“rituximab (Rx), plant-produced, co-expressed with LdOST”: the Kd in assay [1] worked out at 13 nM; in assay [3] it was 50.1 nM.

On to “rituximab (Rx), plant-produced, co-expressed with LmSTT3D”, for which the values for the Kd in assay [1] and in assay [3] were 12 nM and 54.4 nM, respectively.

Regarding “rituximab (Rx), plant-produced, expressed alone”, the figures for the Kd in assay [1] and in assay [3] were 18 nM and 66.6 nM, respectively.
